Patent US20110059889A1 (SYNTONIX PHARMACEUTICALS, published 2011)
Like-named read-outs stand apart in the source and are kept apart here. Bridge positions count the residues as written; N and C are the ends. Square brackets hold non-standard residues; d marks the D form. Ends that are not written are not given here. NMeL = CN[C@@H](CC(C)C)C(=O)O; Pen = CC(C)(S)[C@H](N)C(=O)O

Experiments:
[1] = biological target: T1, soluble human FcRn (shFcRn) (human, UniProt P55899 24-297; P61769 21-119); assay: IgG competition ELISA
T1 construct: Biotinylated for the ELISA, amine-coupled to a CM5 chip for SPR; also called biotinylated shFcRn
Description: The wells were coated with 100 μl/well of 1 μg/ml biotinylated-shFcRn in Buffer A. The plate was sealed and incubated at 37° C. for 2 hours. Afterwards, the plate was washed with 200 μl/well of Buffer B (Buffer B: 100 mM MES pH 6, 150 mM NaCl, 0.5% BSA IgG-free (Jackson ImmunoResearch, West Grove, Pa.), 0.05% Tween-20). […] To allow for mixing, the plate was rocked for 2 minutes, sealed and incubated at 37° C. for 2 hours. […] The plate was covered, incubated for 30 minutes at room temperature and washed 4 times with 200 μl/well of ice-cold buffer B. SureBlue TMB substrate solution (100 μl/well, KPL, Gaithersburg, Md.) was added and the plate was allowed to incubate at room temperature until color developed, which took 5 to 10 minutes. Once color developed, 100 μl/well of TMB stop solution (KPL, Gaithersburg, Md.) was added and the absorbance was measured at 450 nm. The data was plotted as absorbance vs. peptide concentration to derive the inhibitory concentration 50% (IC₅₀) values.

[2] = biological target: T1, soluble human FcRn (shFcRn); assay: IgG competition ELISA; remark: listed apart in the source
[3] = biological target: T1, soluble human FcRn (shFcRn); assay: SPR pH 6
[4] = biological target: T1, soluble human FcRn (shFcRn); assay: IgG competition ELISA; remark: listed apart in the source

Binder	IC50 [2] [µM]	Kd [3] [µM]	other results
RFCTGXFGGLYPC (Pen 3; PropargylGly 6; Sar 9; NMeLeu 10; disulfide 3-13; C-terminal amide) [Peptide No. 261]	–	–	IC50 [1]: 160 µM
QRFCTGHFXGLYPCNGP (Pen 4; Aib 9; disulfide 4-14; C-terminal amide) [Peptide No. 54]	17	5.2	–
RFCTGXFGGLYPC (Pen 3; Thz(Me) 6 (N-methyl-thiazolium); Sar 9; NMeL 10; disulfide 3-13; C-terminal CONH2) [Peptide No. 269]	–	–	IC50 [1]: 2.4 µM
QRFCTGXFGGLYPCNGP (Pen 4; Thz 7; disulfide 4-14; C-terminal amide) [Peptide No. 91]	–	–	IC50 [1]: 44 µM
QRF[Pen]TGHFG[dY]LYPCNGP-NH2 (disulfide 4-14; N-terminus assumed; SMILES CC(C)C[C@@H]1NC(=O)[C@@H](Cc2ccc(O)cc2)NC(=O)CNC(=O)[C@H](Cc2ccccc2)NC(=O)[C@H](Cc2c[nH]cn2)NC(=O)CNC(=O)[C@H]([C@@H](C)O)NC(=O)[C@@H](NC(=O)[C@H](Cc2ccccc2)NC(=O)[C@H](CCCNC(=N)N)NC(=O)[C@@H](N)CCC(N)=O)C(C)(C)SSC[C@@H](C(=O)N[C@@H](CC(N)=O)C(=O)NCC(=O)N2CCC[C@H]2C(N)=O)NC(=O)[C@@H]2CCCN2C(=O)[C@H](Cc2ccc(O)cc2)NC1=O) [Peptide No. 45]	–	1.5	–
QRF[Pen]TGHF[dA][dA]LYPCNGP-NH2 (disulfide 4-14; N-terminus assumed; SMILES CC(C)C[C@@H]1NC(=O)[C@@H](C)NC(=O)[C@@H](C)NC(=O)[C@H](Cc2ccccc2)NC(=O)[C@H](Cc2c[nH]cn2)NC(=O)CNC(=O)[C@H]([C@@H](C)O)NC(=O)[C@@H](NC(=O)[C@H](Cc2ccccc2)NC(=O)[C@H](CCCNC(=N)N)NC(=O)[C@@H](N)CCC(N)=O)C(C)(C)SSC[C@@H](C(=O)N[C@@H](CC(N)=O)C(=O)NCC(=O)N2CCC[C@H]2C(N)=O)NC(=O)[C@@H]2CCCN2C(=O)[C@H](Cc2ccc(O)cc2)NC1=O) [Peptide No. 148]	–	0.45	–
QRF[Pen]TGHWGGLYPCNGP-NH2 (disulfide 4-14; N-terminus assumed; SMILES CC(C)C[C@@H]1NC(=O)CNC(=O)CNC(=O)[C@H](Cc2c[nH]c3ccccc23)NC(=O)[C@H](Cc2c[nH]cn2)NC(=O)CNC(=O)[C@H]([C@@H](C)O)NC(=O)[C@@H](NC(=O)[C@H](Cc2ccccc2)NC(=O)[C@H](CCCNC(=N)N)NC(=O)[C@@H](N)CCC(N)=O)C(C)(C)SSC[C@@H](C(=O)N[C@@H](CC(N)=O)C(=O)NCC(=O)N2CCC[C@H]2C(N)=O)NC(=O)[C@@H]2CCCN2C(=O)[C@H](Cc2ccc(O)cc2)NC1=O) [Peptide No. 95]	–	–	IC50 [4]: 26 µM
QRF[Pen]TGHF[dF]GPYPCNGP-NH2 (disulfide 4-14; N-terminus assumed; SMILES C[C@@H](O)[C@@H]1NC(=O)[C@@H](NC(=O)[C@H](Cc2ccccc2)NC(=O)[C@H](CCCNC(=N)N)NC(=O)[C@@H](N)CCC(N)=O)C(C)(C)SSC[C@@H](C(=O)N[C@@H](CC(N)=O)C(=O)NCC(=O)N2CCC[C@H]2C(N)=O)NC(=O)[C@@H]2CCCN2C(=O)[C@H](Cc2ccc(O)cc2)NC(=O)[C@@H]2CCCN2C(=O)CNC(=O)[C@@H](Cc2ccccc2)NC(=O)[C@H](Cc2ccccc2)NC(=O)[C@H](Cc2c[nH]cn2)NC(=O)CNC1=O) [Peptide No. 155]	39	18.3	–
QRF[Pen]TGHF[dP][dP]LYPCNGP-NH2 (disulfide 4-14; N-terminus assumed; SMILES CC(C)C[C@@H]1NC(=O)[C@H]2CCCN2C(=O)[C@H]2CCCN2C(=O)[C@H](Cc2ccccc2)NC(=O)[C@H](Cc2c[nH]cn2)NC(=O)CNC(=O)[C@H]([C@@H](C)O)NC(=O)[C@@H](NC(=O)[C@H](Cc2ccccc2)NC(=O)[C@H](CCCNC(=N)N)NC(=O)[C@@H](N)CCC(N)=O)C(C)(C)SSC[C@@H](C(=O)N[C@@H](CC(N)=O)C(=O)NCC(=O)N2CCC[C@H]2C(N)=O)NC(=O)[C@@H]2CCCN2C(=O)[C@H](Cc2ccc(O)cc2)NC1=O) [Peptide No. 152]	21	–	–
QRF[Pen]TGHF[dF][dP]LYPCNGP-NH2 (disulfide 4-14; N-terminus assumed; SMILES CC(C)C[C@@H]1NC(=O)[C@H]2CCCN2C(=O)[C@@H](Cc2ccccc2)NC(=O)[C@H](Cc2ccccc2)NC(=O)[C@H](Cc2c[nH]cn2)NC(=O)CNC(=O)[C@H]([C@@H](C)O)NC(=O)[C@@H](NC(=O)[C@H](Cc2ccccc2)NC(=O)[C@H](CCCNC(=N)N)NC(=O)[C@@H](N)CCC(N)=O)C(C)(C)SSC[C@@H](C(=O)N[C@@H](CC(N)=O)C(=O)NCC(=O)N2CCC[C@H]2C(N)=O)NC(=O)[C@@H]2CCCN2C(=O)[C@H](Cc2ccc(O)cc2)NC1=O) [Peptide No. 150]	5.9	0.72	–
RFCTGXFGGLYPC (Pen 3; triazolylAla 6 (1,2,3-triazole side chain); Sar 9; NMeL 10; disulfide 3-13; C-terminal amide) [Peptide No. 271]	–	–	IC50 [1]: 5.7 µM

The next lines start with results.

IC50 [2] [µM]	Kd [3] [µM]	Binder	other results
–	3.8	QRF[Pen]TGHF[dF]PLYPCNGP-NH2 (disulfide 4-14; N-terminus assumed; SMILES CC(C)C[C@@H]1NC(=O)[C@@H]2CCCN2C(=O)[C@@H](Cc2ccccc2)NC(=O)[C@H](Cc2ccccc2)NC(=O)[C@H](Cc2c[nH]cn2)NC(=O)CNC(=O)[C@H]([C@@H](C)O)NC(=O)[C@@H](NC(=O)[C@H](Cc2ccccc2)NC(=O)[C@H](CCCNC(=N)N)NC(=O)[C@@H](N)CCC(N)=O)C(C)(C)SSC[C@@H](C(=O)N[C@@H](CC(N)=O)C(=O)NCC(=O)N2CCC[C@H]2C(N)=O)NC(=O)[C@@H]2CCCN2C(=O)[C@H](Cc2ccc(O)cc2)NC1=O) [Peptide No. 203]	–
3.6	–	QRF[Pen]TGHF[dH]GLYPCNGP-NH2 (disulfide 4-14; N-terminus assumed; SMILES CC(C)C[C@@H]1NC(=O)CNC(=O)[C@@H](Cc2c[nH]cn2)NC(=O)[C@H](Cc2ccccc2)NC(=O)[C@H](Cc2c[nH]cn2)NC(=O)CNC(=O)[C@H]([C@@H](C)O)NC(=O)[C@@H](NC(=O)[C@H](Cc2ccccc2)NC(=O)[C@H](CCCNC(=N)N)NC(=O)[C@@H](N)CCC(N)=O)C(C)(C)SSC[C@@H](C(=O)N[C@@H](CC(N)=O)C(=O)NCC(=O)N2CCC[C@H]2C(N)=O)NC(=O)[C@@H]2CCCN2C(=O)[C@H](Cc2ccc(O)cc2)NC1=O) [Peptide No. 50]	–
4.1	–	QRF[Pen]TGHF[dR]GLYPCNGP-NH2 (disulfide 4-14; N-terminus assumed; SMILES CC(C)C[C@@H]1NC(=O)CNC(=O)[C@@H](CCCNC(=N)N)NC(=O)[C@H](Cc2ccccc2)NC(=O)[C@H](Cc2c[nH]cn2)NC(=O)CNC(=O)[C@H]([C@@H](C)O)NC(=O)[C@@H](NC(=O)[C@H](Cc2ccccc2)NC(=O)[C@H](CCCNC(=N)N)NC(=O)[C@@H](N)CCC(N)=O)C(C)(C)SSC[C@@H](C(=O)N[C@@H](CC(N)=O)C(=O)NCC(=O)N2CCC[C@H]2C(N)=O)NC(=O)[C@@H]2CCCN2C(=O)[C@H](Cc2ccc(O)cc2)NC1=O) [Peptide No. 49]	–
5	–	QRF[Pen]TGHF[dP]GLYPCNGP-NH2 (disulfide 4-14; N-terminus assumed; SMILES CC(C)C[C@@H]1NC(=O)CNC(=O)[C@H]2CCCN2C(=O)[C@H](Cc2ccccc2)NC(=O)[C@H](Cc2c[nH]cn2)NC(=O)CNC(=O)[C@H]([C@@H](C)O)NC(=O)[C@@H](NC(=O)[C@H](Cc2ccccc2)NC(=O)[C@H](CCCNC(=N)N)NC(=O)[C@@H](N)CCC(N)=O)C(C)(C)SSC[C@@H](C(=O)N[C@@H](CC(N)=O)C(=O)NCC(=O)N2CCC[C@H]2C(N)=O)NC(=O)[C@@H]2CCCN2C(=O)[C@H](Cc2ccc(O)cc2)NC1=O) [Peptide No. 48]	–
1.3	0.24	QRF[Pen]TGHF[dF]G[NMeL]YPCNGP-NH2 (disulfide 4-14; N-terminus assumed; SMILES CC(C)C[C@H]1C(=O)N[C@@H](Cc2ccc(O)cc2)C(=O)N2CCC[C@H]2C(=O)N[C@H](C(=O)N[C@@H](CC(N)=O)C(=O)NCC(=O)N2CCC[C@H]2C(N)=O)CSSC(C)(C)[C@H](NC(=O)[C@H](Cc2ccccc2)NC(=O)[C@H](CCCNC(=N)N)NC(=O)[C@@H](N)CCC(N)=O)C(=O)N[C@@H]([C@@H](C)O)C(=O)NCC(=O)N[C@@H](Cc2c[nH]cn2)C(=O)N[C@@H](Cc2ccccc2)C(=O)N[C@H](Cc2ccccc2)C(=O)NCC(=O)N1C) [Peptide No. 153]	–
2.8	0.51	QRF[Pen]TGHF[dF]GLYPCNGP-NH2 (disulfide 4-14; N-terminus assumed; SMILES CC(C)C[C@@H]1NC(=O)CNC(=O)[C@@H](Cc2ccccc2)NC(=O)[C@H](Cc2ccccc2)NC(=O)[C@H](Cc2c[nH]cn2)NC(=O)CNC(=O)[C@H]([C@@H](C)O)NC(=O)[C@@H](NC(=O)[C@H](Cc2ccccc2)NC(=O)[C@H](CCCNC(=N)N)NC(=O)[C@@H](N)CCC(N)=O)C(C)(C)SSC[C@@H](C(=O)N[C@@H](CC(N)=O)C(=O)NCC(=O)N2CCC[C@H]2C(N)=O)NC(=O)[C@@H]2CCCN2C(=O)[C@H](Cc2ccc(O)cc2)NC1=O) [Peptide No. 52]	–
